The series in a line: self-splicing fitness, log relative to wild type (ln ratio); higher = more splicing; Tetrahymena group I intron in knt gene, E. coli kanamycin selection, DiMSum; sequences stand for … in CUCUCU…GGAGGGAAAAGUUAUCAGGCAUGCACCUGGUAGCUAGUCUUUAAACCAAUAGAUUGCAUCGGUUUAAAAGGCAAGACCGUCAAAUUGCGGGAAAGGGGUCAACAGCCGUUCAGUACCAAGUCUCAGGGGAAACUUUGAGAUGGCCUUGCAAAGGGUAUGGUAAUAAGCUGACGGACAUGGUCCUAACCACGCAGCCAAGUCCUAAGUCAACAGAUCUUCUGUUGAUAUGGAUGCAGUUCACAGACUAAAUGUCGGUCGGGGAAGAUGUAUUCUUCUCAUAAGAUAUAGUCGGACCUCUCCUUAAUGGGAGCUAGCGGAUGAAGUGAUGCAACACUGGAGCCGCUGGGAACUAAUUUGUAUGCGAAAGUAUAUUGAUUAGUUUUGGAGUACUCGUGGUCG
In outline:
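The eight P1ex-region nucleotides of an intron in the knt kanamycin-resistance gene on pET-22b(+) were all randomised and the library put into E. coli BL21(DE3). Six replicate transformations were grown overnight at 37°C or 30°C on LB agar with or without 25 μg/mL kanamycin, together with 100 μg/mL carbenicillin, 50 μM IPTG and 0.2% rhamnose. Colonies were pooled and amplicon-sequenced on an Illumina HiSeq 2500. Fitness from DiMSum is the error-weighted combination of wild-type-normalised replicate fold changes, kanamycin over none.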

± gives the uncertainty stated by the source.

Take UGCAAGCAAUAUUACGAACU: the “self-splicing fitness (ln)” value is -0.489 ± 0.14 (30 °C) and 0.0308 ± 0.12 (37 °C).
Regarding UGAUAGCAAUAUUACGGAUG, the “self-splicing fitness (ln)” value was -1.33 ± 0.1 (30 °C) and -0.978 ± 0.12 (37 °C).
On the same counts, the results for AGUCAGCAAUAUUACGGGCU are -2.43 ± 0.19 and -3.12 ± 0.43.
For GGACAGCAAUAUUACGCGUC the same measures were -2.69 ± 0.22 and -2.78 ± 0.48.
On the same counts, the results for AUUCAGCAAUAUUACGACUA are -0.646 ± 0.12 and -0.106 ± 0.12.
With UUUUAGCAAUAUUACGAACA, the “self-splicing fitness (ln)” value (37 °C) was -0.949 ± 0.48.
As for CAGGAGCAAUAUUACGGCCG, the “self-splicing fitness (ln)” value by setting is: (30 °C) -0.398 ± 0.09; (37 °C) 0.0497 ± 0.12.
On the same counts, the results for CAGAAGCAAUAUUACGAUGA are -2.08 ± 0.12 and -0.735 ± 0.086.
For GCAUAGCAAUAUUACGAUCC the same measures were -0.993 ± 0.19 and 0.0935 ± 0.28.
On the same counts, the results for GAAAAGCAAUAUUACGCAAA are -0.0354 ± 0.26 and -1.79 ± 0.32.
Turning to CCAGAGCAAUAUUACGGUUU, the “self-splicing fitness (ln)” value was -4.44 ± 0.39 (30 °C) and -3.07 ± 0.32 (37 °C).
As for UUGGAGCAAUAUUACGGAAG, where the note is “30 °C”, the “self-splicing fitness (ln)” value was -3.3 ± 0.44.
As for AUGUAGCAAUAUUACGUAAG, the “self-splicing fitness (ln)” value was -2.99 ± 0.2 (30 °C) and -2.93 ± 0.2 (37 °C).
For GGUUAGCAAUAUUACGACCA the same measures were -1.69 ± 0.32 and -0.631 ± 0.3.
UUCUAGCAAUAUUACGCUAC: the “self-splicing fitness (ln)” value (30 °C) was -2.37 ± 0.38.
Regarding UUAAAGCAAUAUUACGCCUG, the “self-splicing fitness (ln)” value reads like this: (30 °C) 0.63 ± 0.16; (37 °C) 1 ± 0.17.
On the same counts, the results for UGAGAGCAAUAUUACGUGAG are -2.43 ± 0.14 and -1.83 ± 0.2.
On the same counts, the results for AAACAGCAAUAUUACGGCUC are -0.311 ± 0.068 and 0.201 ± 0.095.
On the same counts, the results for AAACAGCAAUAUUACGAUGG are -3.16 ± 0.15 and -1.27 ± 0.16.
Take AGUGAGCAAUAUUACGUGGC: the “self-splicing fitness (ln)” value (37 °C) is -1.94 ± 0.33.
As for CCAUAGCAAUAUUACGUACG, the “self-splicing fitness (ln)” value is -0.658 ± 0.07 (30 °C) and 0.351 ± 0.086 (37 °C).
For ACGUAGCAAUAUUACGCCUG the same measures were -1.29 ± 0.077 and 0.00322 ± 0.11.
Consider UAUAAGCAAUAUUACGAUCA, for which the “self-splicing fitness (ln)” value runs as follows: (30 °C) -0.251 ± 0.1; (37 °C) 0.847 ± 0.11.
On the same counts, the results for UGUAAGCAAUAUUACGAAGU are -3.23 ± 0.47 and -2.46 ± 0.35.
As for UCAUAGCAAUAUUACGUCGG, the “self-splicing fitness (ln)” value reads like this: (30 °C) -1.34 ± 0.12; (37 °C) -0.0833 ± 0.11.
For CGCAAGCAAUAUUACGUGCU the same measures were -0.881 ± 0.069 and -0.489 ± 0.081.
For UCAUAGCAAUAUUACGAUGC the same measures were -1.49 ± 0.14 and -1.43 ± 0.14.
On the same counts, the results for CCAUAGCAAUAUUACGGUGG are -3.66 ± 0.13 and -3.4 ± 0.18.
With UGCGAGCAAUAUUACGUCCA, the “self-splicing fitness (ln)” value (30 °C) is -0.227 ± 0.25 and the “self-splicing fitness (ln)” value (37 °C) is -0.499 ± 0.29.
On the same counts, the results for CACGAGCAAUAUUACGGCGG are -2.37 ± 0.092 and -1.14 ± 0.11.
CCCGAGCAAUAUUACGGGCA: the “self-splicing fitness (ln)” value was -3.2 ± 0.23 (30 °C) and -2.66 ± 0.23 (37 °C).
On the same counts, the results for CAGUAGCAAUAUUACGUAAA are -2.13 ± 0.16 and -1.61 ± 0.24.
As for UCCGAGCAAUAUUACGUAAU, the “self-splicing fitness (ln)” value was -4.41 ± 0.28 (30 °C) and -1.88 ± 0.18 (37 °C).
For CUAUAGCAAUAUUACGUGAG the same measures were -0.571 ± 0.057 and -0.137 ± 0.086.
Consider UUGCAGCAAUAUUACGACGC, for which the “self-splicing fitness (ln)” value (30 °C) was -3.11 ± 0.46.
On to CCGAAGCAAUAUUACGUCGU, for which the “self-splicing fitness (ln)” value reads like this: (30 °C) -1.94 ± 0.074; (37 °C) -0.687 ± 0.077.
Consider UGAUAGCAAUAUUACGCCCG, for which the “self-splicing fitness (ln)” value is 0.00499 ± 0.21 (30 °C) and -0.455 ± 0.2 (37 °C).
Consider AAGGAGCAAUAUUACGUGGA, for which the “self-splicing fitness (ln)” value by setting is: (30 °C) -2.36 ± 0.2; (37 °C) -1.75 ± 0.2.
As to AGUCAGCAAUAUUACGCGUG, the “self-splicing fitness (ln)” value is, setting by setting: (30 °C) -1.28 ± 0.097; (37 °C) -0.66 ± 0.11.

These data come from the supplement of paper PMC7877785.
